B1: G210E: mutation to UGT enzyme of SEQ ID NO: 13 (protein)
chain: MATKGSSGMSLAERFWLTLSRSSLVVGRSCVEFEPETVPLLSTLRGKPITFLGLMPPLHEGRREDGEDATVRWLDAQPAKSVVYVALGSEVPLGVEKVHELALGLELAGTRFLWALRKPTGVSDADLLPAGFEERTRGRGVVATRWVPQMSILAHAAVGAFLTHCGWNSTIEGLMFGHPLIMLPIFGDQGPNARLIEAKNAGLQVARNDEDGSFDREGVAAAIRAVAVEEESSKVFQAKAKKLQEIVADMACHERYIDGFIQQLRSYKDDSGYSSSYAAAAGMHVVICPWLAFGHLLPCLDLAQRLASRGHRVSFVSTPRNISRLPPVRPALAPLVAFVALPLPRVEGLPDGAESTNDVPHDRPDMVELHRRAFDGLAAPFSEFLGTACADWVIVDVFHHWAAAAALEHKVPCAMMLLGSAEMIASIADERLEHAETESPAAAGQGRPAAAPTFEVARMKLIR
B2: V397C: mutation to UGT enzyme of SEQ ID NO: 13 (protein)
chain: MATKGSSGMSLAERFWLTLSRSSLVVGRSCVEFEPETVPLLSTLRGKPITFLGLMPPLHEGRREDGEDATVRWLDAQPAKSVVYVALGSEVPLGVEKVHELALGLELAGTRFLWALRKPTGVSDADLLPAGFEERTRGRGVVATRWVPQMSILAHAAVGAFLTHCGWNSTIEGLMFGHPLIMLPIFGDQGPNARLIEAKNAGLQVARNDGDGSFDREGVAAAIRAVAVEEESSKVFQAKAKKLQEIVADMACHERYIDGFIQQLRSYKDDSGYSSSYAAAAGMHVVICPWLAFGHLLPCLDLAQRLASRGHRVSFVSTPRNISRLPPVRPALAPLVAFVALPLPRVEGLPDGAESTNDVPHDRPDMVELHRRAFDGLAAPFSEFLGTACADWVIVDCFHHWAAAAALEHKVPCAMMLLGSAEMIASIADERLEHAETESPAAAGQGRPAAAPTFEVARMKLIR
B3: V91A: mutation to UGT enzyme of SEQ ID NO: 13 (protein)
chain: MATKGSSGMSLAERFWLTLSRSSLVVGRSCVEFEPETVPLLSTLRGKPITFLGLMPPLHEGRREDGEDATVRWLDAQPAKSVVYVALGSEAPLGVEKVHELALGLELAGTRFLWALRKPTGVSDADLLPAGFEERTRGRGVVATRWVPQMSILAHAAVGAFLTHCGWNSTIEGLMFGHPLIMLPIFGDQGPNARLIEAKNAGLQVARNDGDGSFDREGVAAAIRAVAVEEESSKVFQAKAKKLQEIVADMACHERYIDGFIQQLRSYKDDSGYSSSYAAAAGMHVVICPWLAFGHLLPCLDLAQRLASRGHRVSFVSTPRNISRLPPVRPALAPLVAFVALPLPRVEGLPDGAESTNDVPHDRPDMVELHRRAFDGLAAPFSEFLGTACADWVIVDVFHHWAAAAALEHKVPCAMMLLGSAEMIASIADERLEHAETESPAAAGQGRPAAAPTFEVARMKLIR
B4: F186M: mutation to UGT enzyme of SEQ ID NO: 13 (protein)
chain: MATKGSSGMSLAERFWLTLSRSSLVVGRSCVEFEPETVPLLSTLRGKPITFLGLMPPLHEGRREDGEDATVRWLDAQPAKSVVYVALGSEVPLGVEKVHELALGLELAGTRFLWALRKPTGVSDADLLPAGFEERTRGRGVVATRWVPQMSILAHAAVGAFLTHCGWNSTIEGLMFGHPLIMLPIMGDQGPNARLIEAKNAGLQVARNDGDGSFDREGVAAAIRAVAVEEESSKVFQAKAKKLQEIVADMACHERYIDGFIQQLRSYKDDSGYSSSYAAAAGMHVVICPWLAFGHLLPCLDLAQRLASRGHRVSFVSTPRNISRLPPVRPALAPLVAFVALPLPRVEGLPDGAESTNDVPHDRPDMVELHRRAFDGLAAPFSEFLGTACADWVIVDVFHHWAAAAALEHKVPCAMMLLGSAEMIASIADERLEHAETESPAAAGQGRPAAAPTFEVARMKLIR
B5: V397S: mutation to UGT enzyme of SEQ ID NO: 13 (protein)
chain: MATKGSSGMSLAERFWLTLSRSSLVVGRSCVEFEPETVPLLSTLRGKPITFLGLMPPLHEGRREDGEDATVRWLDAQPAKSVVYVALGSEVPLGVEKVHELALGLELAGTRFLWALRKPTGVSDADLLPAGFEERTRGRGVVATRWVPQMSILAHAAVGAFLTHCGWNSTIEGLMFGHPLIMLPIFGDQGPNARLIEAKNAGLQVARNDGDGSFDREGVAAAIRAVAVEEESSKVFQAKAKKLQEIVADMACHERYIDGFIQQLRSYKDDSGYSSSYAAAAGMHVVICPWLAFGHLLPCLDLAQRLASRGHRVSFVSTPRNISRLPPVRPALAPLVAFVALPLPRVEGLPDGAESTNDVPHDRPDMVELHRRAFDGLAAPFSEFLGTACADWVIVDSFHHWAAAAALEHKVPCAMMLLGSAEMIASIADERLEHAETESPAAAGQGRPAAAPTFEVARMKLIR
B6: F186I: mutation to UGT enzyme of SEQ ID NO: 13 (protein)
chain: MATKGSSGMSLAERFWLTLSRSSLVVGRSCVEFEPETVPLLSTLRGKPITFLGLMPPLHEGRREDGEDATVRWLDAQPAKSVVYVALGSEVPLGVEKVHELALGLELAGTRFLWALRKPTGVSDADLLPAGFEERTRGRGVVATRWVPQMSILAHAAVGAFLTHCGWNSTIEGLMFGHPLIMLPIIGDQGPNARLIEAKNAGLQVARNDGDGSFDREGVAAAIRAVAVEEESSKVFQAKAKKLQEIVADMACHERYIDGFIQQLRSYKDDSGYSSSYAAAAGMHVVICPWLAFGHLLPCLDLAQRLASRGHRVSFVSTPRNISRLPPVRPALAPLVAFVALPLPRVEGLPDGAESTNDVPHDRPDMVELHRRAFDGLAAPFSEFLGTACADWVIVDVFHHWAAAAALEHKVPCAMMLLGSAEMIASIADERLEHAETESPAAAGQGRPAAAPTFEVARMKLIR
B7: C288F: mutation to UGT enzyme of SEQ ID NO: 13 (protein)
chain: MATKGSSGMSLAERFWLTLSRSSLVVGRSCVEFEPETVPLLSTLRGKPITFLGLMPPLHEGRREDGEDATVRWLDAQPAKSVVYVALGSEVPLGVEKVHELALGLELAGTRFLWALRKPTGVSDADLLPAGFEERTRGRGVVATRWVPQMSILAHAAVGAFLTHCGWNSTIEGLMFGHPLIMLPIFGDQGPNARLIEAKNAGLQVARNDGDGSFDREGVAAAIRAVAVEEESSKVFQAKAKKLQEIVADMACHERYIDGFIQQLRSYKDDSGYSSSYAAAAGMHVVIFPWLAFGHLLPCLDLAQRLASRGHRVSFVSTPRNISRLPPVRPALAPLVAFVALPLPRVEGLPDGAESTNDVPHDRPDMVELHRRAFDGLAAPFSEFLGTACADWVIVDVFHHWAAAAALEHKVPCAMMLLGSAEMIASIADERLEHAETESPAAAGQGRPAAAPTFEVARMKLIR
B8: A248G: mutation to UGT enzyme of SEQ ID NO: 13 (protein)
chain: MATKGSSGMSLAERFWLTLSRSSLVVGRSCVEFEPETVPLLSTLRGKPITFLGLMPPLHEGRREDGEDATVRWLDAQPAKSVVYVALGSEVPLGVEKVHELALGLELAGTRFLWALRKPTGVSDADLLPAGFEERTRGRGVVATRWVPQMSILAHAAVGAFLTHCGWNSTIEGLMFGHPLIMLPIFGDQGPNARLIEAKNAGLQVARNDGDGSFDREGVAAAIRAVAVEEESSKVFQAKAKKLQEIVGDMACHERYIDGFIQQLRSYKDDSGYSSSYAAAAGMHVVICPWLAFGHLLPCLDLAQRLASRGHRVSFVSTPRNISRLPPVRPALAPLVAFVALPLPRVEGLPDGAESTNDVPHDRPDMVELHRRAFDGLAAPFSEFLGTACADWVIVDVFHHWAAAAALEHKVPCAMMLLGSAEMIASIADERLEHAETESPAAAGQGRPAAAPTFEVARMKLIR
B9: F186T: mutation to UGT enzyme of SEQ ID NO: 13 (protein)
chain: MATKGSSGMSLAERFWLTLSRSSLVVGRSCVEFEPETVPLLSTLRGKPITFLGLMPPLHEGRREDGEDATVRWLDAQPAKSVVYVALGSEVPLGVEKVHELALGLELAGTRFLWALRKPTGVSDADLLPAGFEERTRGRGVVATRWVPQMSILAHAAVGAFLTHCGWNSTIEGLMFGHPLIMLPITGDQGPNARLIEAKNAGLQVARNDGDGSFDREGVAAAIRAVAVEEESSKVFQAKAKKLQEIVADMACHERYIDGFIQQLRSYKDDSGYSSSYAAAAGMHVVICPWLAFGHLLPCLDLAQRLASRGHRVSFVSTPRNISRLPPVRPALAPLVAFVALPLPRVEGLPDGAESTNDVPHDRPDMVELHRRAFDGLAAPFSEFLGTACADWVIVDVFHHWAAAAALEHKVPCAMMLLGSAEMIASIADERLEHAETESPAAAGQGRPAAAPTFEVARMKLIR
B10: SEQ ID NO: 74: CcUGT_1,6 (Coffea canephora) (protein, listed as Coffea canephora)
chain: MAENHATFNVLMLPWLAHGHVSPYLELAMKLTARNFNVYLCSSPATLSSVRSKLTEKFSQSIHLVELHLPKLPELPAEYHTTNGLPPHLMPTLKDAFDMAKPNFCNVLKSLKPDLLIYDLLQPWAPEAASAFNIPAVVFISSSATMTSFGLHFFKNPGTKYPYGNTIFYRDYESVFVENLKKRDRDTYRVVNCMERSSKIILIKGFKEIEGKYFDYFSCLTGKKVVPVGPLVQDPVLDDEDCRIMQWLNKKEKGSTVFVSFGSEYFLSKEDMEEIAHGLELSNVDFIWVVRFPKGENIVIEETLPKGFFERVGERGLVVNGWAPQAKILTHPNVGGFVSHCGWNSVMESMKFGLPIVAMPMHLDQPINARLIEEVGAGVEVLRDSKGKLHRERMAETINKVTKEASGEPARKKARELQEKLELKGDEEIDDVVKELVQLCATKNKRNGLHCYN

Test system: steviol glycoside
Assay: steviol glycoside bioconversion by E. coli expressing individual mutations of UGT SEQ ID NO: 13
Assay type: cell-based
Settings: fold improvement of % conversion vs parent UGT SEQ ID NO: 13; stevia leaf extract and glucose fed; 37° C., 48 hr
Source text: A UGT enzyme referred to as MbUGT1,2 is described in U.S. Pat. No. 10,743,567, which is hereby incorporated by reference. An engineered version of MbUGT1,2 (SEQ ID NO: 13) is described in US 2020/0087692, which is hereby incorporated by reference in its entirety. The UGT enzyme of SEQ ID NO: 13 was further engineered to improve activity for steviol glycoside bioconversion. […] Fold improvement is with respect to % steviol glycoside conversion of the parent UGT enzyme (SEQ ID NO: 13). SEQ ID NO: 14 has the following mutations from SEQ ID NO: 13: G5N, F186T, V397S. Stevia leaf extract and glucose were fed to the bioconversion strains. Bioconversion took place at 37° C. for 48 hr. Data were quantified by reverse phase LC DAD to quantify conversion of steviol glycosides.
Fold improvement (FI) is with respect to % steviol glycoside conversion.

First: B1
Second: B2
The “FI %Stevioside→rebE” value of the first is lower: 1.2 for the first, 1.9 for the second.

Compared with B3, B4 is higher in “FI %Stevioside→rebE” value: 1.1 for the first, 2.9 for the second.

First: B5
Second: B6
The “FI %Stevioside→rebE” value of the first is higher: 3.8 for the first, 2.6 for the second.

Compared with B7, B8 is lower in “FI %Stevioside→rebE” value: 1.7 for the first, 1.1 for the second.

In the case of B9, the “FI %Stevioside→rebE” value is reported as 1.8.

First: B1
Second: B2
The “FI %rebA→rebD” value of the first is lower: 1.2 for the first, 1.9 for the second.

Going from B3 to B4, the “FI %rebA→rebD” value rises from 1.1 to 2.3.

First: B5
Second: B6
The “FI %rebA→rebD” value of the first is higher: 3.4 for the first, 2.1 for the second.

First: B7
Second: B8
The “FI %rebA→rebD” value of the first is higher: 1.5 for the first, 1.1 for the second.

For B9, the “FI %rebA→rebD” value was 1.7.

Test system: Mog. IIE or Mog. IE
Assay: branched glycosylation reactions by cells expressing UGT enzymes
Assay type: cell-based, E. coli
Settings: Mog. IIE or Mog. IE fed; 37° C., 48 hr; LC-MS/MS
Method: Mog. IIE or Mog. IE was fed to cells expressing various UGT enzymes. Reactions were incubated at 37° C. for 48 hr. Products were quantified by LC-MS/MS with authentic standards of each compound. “Indirect” evidence means that consumption of substrate was observed.

In the case of B10, the “C3 1-2” value is reported as “No”.

With B10 the “C3 1-6” value was “Yes”.

In the case of B10, the “C24 1-2” value is reported as “No”.

With B10 the “C24 1-6” value was “Yes”.
